How the values were obtained:
[1] = molecular target: T1, EIV-HA protein (hemagglutinin of equine influenza virus H3N8), wild type (equine influenza virus (H3N8)); test: ELISA
[2] = molecular target: T1, EIV-HA protein (hemagglutinin of equine …); test: SPR
[3] = molecular target: T1, EIV-HA protein (hemagglutinin of equine …); test: SPR; remark: listed apart in the source

B1: H81 recombinant antibody (equine Ig (Fab)2 recombined with homo Ig Fc) (antibody, V domains shown)
VH: QVQLKESGPGLVKPSQTLSLTCTVSGLSLSSDAVGWVRQAPGKGLEWVACIYGDESTYYNPALKSRAGITKDTSKSQVYLTLNSLTGEDTAVYYCAGLVYEYYAGTWTIVFELKYWGQGILVTVSS
VL: QSLTQPASVSGTLGQTVTISCSGSSSNIGHRYSTVGWYQQIPGTAPKTLIYGSDKRASGVPDRFSGSKSGNTATLTISGLQAEDEADYYCGSYYYASSDSSGGAFGGGTHLTIA
In the case of B1, the EC50 [1] is reported as 4.2 ng/mL, the koff [2] is reported as 8.52e-05 s⁻¹ and the Kd [3] is reported as 10.1 nM.
